The values that follow come from patent publication US20250136938A1.

The target of the assay is KRAS^G12V-reactive TCR (Pt. 4148). Briefly: tetramer staining, flow cytometry on 41BB-enriched CD8 memory T cells of Pt. 4148. Background: Flow cytometry measures light scatter and fluorescence of single cells or particles in a stream.

Turning to “HLA-A*11:01-KRAS^G12V 9-mer tetramer (from UniProt P01116 8-16; P61769 21-119) (peptide-MHC)”, the percent of memory CD8 cells in the culture bound by tetramer is 15.9%.
